Here are results for 39 sequences from the supplement of paper PMC7877785.

± gives the uncertainty stated by the source.

This data set can be described thus: self-splicing fitness, log relative to wild type (ln ratio); higher = more splicing; Tetrahymena group I intron in knt gene, E. coli kanamycin selection, DiMSum; sequences stand for … in CUCUCU…GGAGGGAAAAGUUAUCAGGCAUGCACCUGGUAGCUAGUCUUUAAACCAAUAGAUUGCAUCGGUUUAAAAGGCAAGACCGUCAAAUUGCGGGAAAGGGGUCAACAGCCGUUCAGUACCAAGUCUCAGGGGAAACUUUGAGAUGGCCUUGCAAAGGGUAUGGUAAUAAGCUGACGGACAUGGUCCUAACCACGCAGCCAAGUCCUAAGUCAACAGAUCUUCUGUUGAUAUGGAUGCAGUUCACAGACUAAAUGUCGGUCGGGGAAGAUGUAUUCUUCUCAUAAGAUAUAGUCGGACCUCUCCUUAAUGGGAGCUAGCGGAUGAAGUGAUGCAACACUGGAGCCGCUGGGAACUAAUUUGUAUGCGAAAGUAUAUUGAUUAGUUUUGGAGUACUCGUGGUCG
The gist of the method:
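Fitness was computed with DiMSum as the error-weighted combination of replicate fold changes, kanamycin versus none, each normalised to wild type. The library randomised all eight intron nucleotides of the P1ex region, with the intron placed in the knt kanamycin-resistance gene on pET-22b(+) in E. coli BL21(DE3). Six replicate transformations were grown overnight at 37°C or 30°C on LB agar with or without 25 μg/mL kanamycin, plus 100 μg/mL carbenicillin, 50 μM IPTG and 0.2% rhamnose. Pooled colonies were amplicon-sequenced on an Illumina HiSeq 2500.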

CCAGAGCAAUAUUACGAUAA: the “self-splicing fitness (ln)” value runs as follows: (30 °C) -3.17 ± 0.29; (37 °C) -2.04 ± 0.2.
On to CGCGAGCAAUAUUACGGGCG, for which the “self-splicing fitness (ln)” value runs as follows: (30 °C) -3.25 ± 0.24; (37 °C) -3.4 ± 0.42.
Turning to UAUCAGCAAUAUUACGCUGA, where the note is “37 °C”, the “self-splicing fitness (ln)” value was -2.31 ± 0.37.
On the same count and under the same terms, as for CUAGAGCAAUAUUACGACUC, the figure is -1.39 ± 0.48.
As to CUAAAGCAAUAUUACGAUCG, the “self-splicing fitness (ln)” value (30 °C) was 0.485 ± 0.073 and the “self-splicing fitness (ln)” value (37 °C) was 0.485 ± 0.1.
On to CCGAAGCAAUAUUACGCACU, for which the “self-splicing fitness (ln)” value by setting is: (30 °C) -2.98 ± 0.26; (37 °C) -2.68 ± 0.44.
For the sequence CCCGAGCAAUAUUACGGAGU, the “self-splicing fitness (ln)” value by setting is: (30 °C) -3.46 ± 0.25; (37 °C) -2.87 ± 0.22.
Regarding GCUCAGCAAUAUUACGCGCU, the “self-splicing fitness (ln)” value is, setting by setting: (30 °C) -1.42 ± 0.11; (37 °C) -0.545 ± 0.14.
For AUCCAGCAAUAUUACGCGUA, the “self-splicing fitness (ln)” value is, setting by setting: (30 °C) -0.536 ± 0.089; (37 °C) -0.499 ± 0.097.
Regarding UUCAAGCAAUAUUACGUCUG, the “self-splicing fitness (ln)” value was -3.08 ± 0.24 (30 °C) and -1.46 ± 0.14 (37 °C).
With AGCCAGCAAUAUUACGAUUU, the “self-splicing fitness (ln)” value is -2.3 ± 0.1 (30 °C) and -1.24 ± 0.11 (37 °C).
As for AUGUAGCAAUAUUACGACCA, the “self-splicing fitness (ln)” value runs as follows: (30 °C) -0.549 ± 0.17; (37 °C) -0.552 ± 0.17.
For the sequence GGGUAGCAAUAUUACGGGCA, the “self-splicing fitness (ln)” value (30 °C) is -0.435 ± 0.25 and the “self-splicing fitness (ln)” value (37 °C) was -0.58 ± 0.26.
With CAGAAGCAAUAUUACGUCGA, the “self-splicing fitness (ln)” value runs as follows: (30 °C) -2.1 ± 0.13; (37 °C) -0.369 ± 0.1.
UCGUAGCAAUAUUACGAGAA: the “self-splicing fitness (ln)” value (30 °C) is -2.57 ± 0.49 and the “self-splicing fitness (ln)” value (37 °C) was -1.61 ± 0.41.
With GUUUAGCAAUAUUACGGAUC, the “self-splicing fitness (ln)” value is, setting by setting: (30 °C) -1.18 ± 0.11; (37 °C) 0.125 ± 0.12.
For GGUGAGCAAUAUUACGUAAA, the “self-splicing fitness (ln)” value (30 °C) was -2.79 ± 0.3 and the “self-splicing fitness (ln)” value (37 °C) is -1.45 ± 0.31.
Turning to AAUUAGCAAUAUUACGUCCC, the “self-splicing fitness (ln)” value is, setting by setting: (30 °C) -0.346 ± 0.41; (37 °C) -0.0336 ± 0.49.
Regarding CGACAGCAAUAUUACGGUGA, the “self-splicing fitness (ln)” value is, setting by setting: (30 °C) -2.34 ± 0.14; (37 °C) -1.55 ± 0.14.
For the sequence ACUGAGCAAUAUUACGAAGU, the “self-splicing fitness (ln)” value was -3.93 ± 0.3 (30 °C) and -3.03 ± 0.31 (37 °C).
Take CGGAAGCAAUAUUACGGUCU: the “self-splicing fitness (ln)” value by setting is: (30 °C) -1.38 ± 0.074; (37 °C) -0.791 ± 0.099.
With UCGAAGCAAUAUUACGACUA, the “self-splicing fitness (ln)” value was -1.05 ± 0.16 (30 °C) and -0.97 ± 0.13 (37 °C).
On the same counts, the results for AUUGAGCAAUAUUACGUAAG are -2.78 ± 0.13 and -1.82 ± 0.13.
AUAAAGCAAUAUUACGCGGC: the “self-splicing fitness (ln)” value reads like this: (30 °C) -2.79 ± 0.21; (37 °C) -0.109 ± 0.19.
On the same counts, the results for AUUAAGCAAUAUUACGUUGA are -2.67 ± 0.24 and -1.95 ± 0.16.
CACCAGCAAUAUUACGUCGG: the “self-splicing fitness (ln)” value by setting is: (30 °C) -1.36 ± 0.059; (37 °C) -0.518 ± 0.072.
For CUUGAGCAAUAUUACGCUAA, the “self-splicing fitness (ln)” value (30 °C) is -4.05 ± 0.31 and the “self-splicing fitness (ln)” value (37 °C) was -3.36 ± 0.35.
On the same counts, the results for AUGAAGCAAUAUUACGGUGU are -1.33 ± 0.062 and -0.601 ± 0.078.
On the same counts, the results for AUAUAGCAAUAUUACGGCUC are -0.0589 ± 0.13 and -0.144 ± 0.16.
GUUAAGCAAUAUUACGUGGG: the “self-splicing fitness (ln)” value by setting is: (30 °C) -2.87 ± 0.13; (37 °C) -2.65 ± 0.17.
On to GGGCAGCAAUAUUACGUAUA, for which the “self-splicing fitness (ln)” value was -1.85 ± 0.13 (30 °C) and -1.1 ± 0.14 (37 °C).
The like results for CAUAAGCAAUAUUACGGGAC were, in that order, -1.54 ± 0.18 and -2.23 ± 0.27.
Regarding CACUAGCAAUAUUACGAUCU, the “self-splicing fitness (ln)” value reads like this: (30 °C) -3.56 ± 0.19; (37 °C) -2.18 ± 0.18.
As for GGCCAGCAAUAUUACGAUUG, the “self-splicing fitness (ln)” value by setting is: (30 °C) -3.73 ± 0.2; (37 °C) -1.74 ± 0.16.
On to AGUGAGCAAUAUUACGGCGU, for which the “self-splicing fitness (ln)” value runs as follows: (30 °C) -1.08 ± 0.071; (37 °C) -0.465 ± 0.084.
On to UCCUAGCAAUAUUACGUGCC, for which the “self-splicing fitness (ln)” value by setting is: (30 °C) -2.26 ± 0.33; (37 °C) -2.02 ± 0.39.
With UGACAGCAAUAUUACGCCUU, the “self-splicing fitness (ln)” value reads like this: (30 °C) -2.19 ± 0.12; (37 °C) -1.15 ± 0.12.
As to CCUUAGCAAUAUUACGAUAC, the “self-splicing fitness (ln)” value (30 °C) is -1.67 ± 0.44.
UCCGAGCAAUAUUACGUAUC: the “self-splicing fitness (ln)” value (30 °C) is -2.88 ± 0.25 and the “self-splicing fitness (ln)” value (37 °C) is -2.07 ± 0.37.
